Columns and labels:
[1] = biological target: His6-Sep fusion protein from construct BspA-6xHis-Sep (Lactobacillus fermentum BR11); test: whole cell ELISA for the His6 epitope on L. fermentum cells with BspA-6xHis-Sep against parent BR11 cells
[2] = biological target: His6-Sep fusion protein from construct BspA-6xHis-Sep (Lactobacillus fermentum BR11); test: whole cell ELISA for the His6 epitope on L. fermentum cells with BspA-6xHis-Sep; parent BR11 cells gave 0.0168±0.0007

With “anti-His5 monoclonal antibody (Qiagen, Hilden, Germany)” the fold signal over L. fermentum BR11 parent cells [1] was 1.8 fold and the A450nm signal per OD600 nm unit of cells (A450nm per OD600 nm unit of cells) [2] was 0.0302.

From patent US20070276124A1
